Measurements published in PMC7190724, “Improved GPCR ligands from nanobody tethering” (Nature Communications, 2020).

Tests used:
[1] = molecular target: each of the PTHR1 receptor constructs that retained the ECD; assay: flow cytometry on cells; dose response of staining with VHH-Alexafluor647 (median fluorescent intensity); cells in PBS, 1 h on ice; curves without plateau constrained to the plateau seen with other VHHs
PTHR1_(YFPΔECD) = assay: as above

Row | Binder | EC50 [1] [nM] | EC50 (PTHR1_(YFPΔECD)) [nM]
1 | VHH_(PTHR) (VHH) VHH: EVQLVESGGGLVQAGGSLRLSCAASGNIFANNIMGWYRQPPGKEREFVAHVSHDGDSMYAVSVKGRFAISRKDATNLYLQMNSLKPEDTAIYFCRLLNIPTQGRMEGFWGQGTQVTVSS | 100 to 200 | –
2 | VHHGFP (VHH) VHH: QVQLQESGGALVQPGGSLRLSCAASGFPVNRYSMRWYRQAPGKEREWVAGMSSAGDRSSYEDSVKGRFTISRDDARNTVYLQMNSLKPEDTAVYYCNVNVGFEYWGQGTQVTVSS | – | < 10
